Reference: US20150344863

Biological target: Factor X, P00742
Sequence (P00742 whole entry, looked up): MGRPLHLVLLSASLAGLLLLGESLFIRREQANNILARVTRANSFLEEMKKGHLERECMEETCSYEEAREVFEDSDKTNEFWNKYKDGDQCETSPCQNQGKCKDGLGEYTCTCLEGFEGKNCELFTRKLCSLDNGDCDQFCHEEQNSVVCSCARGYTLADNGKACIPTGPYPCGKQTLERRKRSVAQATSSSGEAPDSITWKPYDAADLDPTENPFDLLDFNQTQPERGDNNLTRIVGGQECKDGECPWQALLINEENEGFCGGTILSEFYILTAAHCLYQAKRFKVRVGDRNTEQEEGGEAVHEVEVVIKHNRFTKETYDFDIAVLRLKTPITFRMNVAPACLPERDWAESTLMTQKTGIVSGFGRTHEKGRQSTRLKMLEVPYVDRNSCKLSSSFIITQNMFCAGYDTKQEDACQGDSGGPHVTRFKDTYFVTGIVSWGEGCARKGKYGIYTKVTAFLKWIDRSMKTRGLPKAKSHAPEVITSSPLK

B1: desialylated wild-type Factor VII (dWT VIIa) (protein)
chain 1: ANAFLEELRPGSLERECKEEQCSFEEAREIFKDAERTKLFWISYSDGDQCASSPCQNGGSCKDQLQSYICFCLPAFEGRNCETHKDDQLICVNENGGCEQYCSDHTGTKRSCRCHEGYSLLADGVSCTPTVEYPCGKIPILEKRNASKPQGR
chain 2: IVGGKVCPKGECPWQVLLLVNGAQLCGGTLINTIWVVSAAHCFDKIKNWRNLIAVLGEHDLSEHDGDEQSRRVAQVIIPSTYVPGTTNHDIALLRLHQPVVLTDHVVPLCLPERTFSERTLAFVRFSLVSGWGQLLDRGATALELMVLNVPRLMTQDCLQQSRKVGDSPNITEYMFCAGYSDGSKDSCKGDSGGPHATHYRGTWYLTGIVSWGQGCATVGHFGVYTRVSQYIEWLQKLMRSEPRPGVLLRAPFP
Michaelis Menten kinetics of Factor X activation, Factor X titrated in the presence of sTF-Factor VII complexes (0.5 nM Factor VII, 125 nM sTF): dWT VIIa (dF7) can activate Factor X more effectively (approximately 2-fold) than wild-type Factor VII (F7)
